According to patent publication US6709814B1, “Peptides causing formation of compact structures” (Rigel Pharmaceuticals, Inc., priority 1998, dated 2004):
Bridge positions count the residues as written; N and C are the ends. Square brackets hold non-standard residues; d marks the D form. Ends that are not written are not given here. Peptide text beside a SMILES is read from it. pGlu = O=C1CC[C@@H](C(=O)O)N1

Key:
[1] = target: T1, porcine pancreatic elastase (Sus scrofa, UniProt P00772); assay: Inhibition of porcine pancreatic elastase (succinyl-ala-ala-ala-p-nitroanilide cleavage); type: biochemical; conditions: pH 7.88, 25 C
T1 construct: purchased Sigma Chemical Co., St. Louis, Mo
Procedure: Inhibition by different peptide constructs was followed by preincubation of 10 μM peptide with elastase for 1-1.5 min. followed by addition of the substrate. Percent inhibition was calculated as [1−{assay slope(peptide+elastase)/assay slope(elastase alone)}]×100%.

[2] = target: T1, porcine pancreatic elastase; conditions: Leatherbarrow and Salacinski; read-out: reported apparent inhibition constant (Ki) for elastase; cited from earlier work
[3] = Observation of peptide dimers by electrospray MS / LC-MS under harsh conditions; type: binding; conditions: electrospray ion trap, infusion at pH 6.4 or C18 elution at ~pH 2.5 in acetonitrile
From the text: The peptide also forms dimers (also detected by mass spectrometry) when eluted off a C18 reversed phase column at pH ˜2.5 in ca. 25% acetonitrile (FIG. 3B).
LC/MS examination of the crude synthesis products from an all-single coupled fmoc synthesis of EFLIVKS-amide, for shorter sequences which can dimerize after electrospray ionization is shown in FIG. 4. HPLC elution was with a gradient of 99.9% water-0.1% TFA to 99.9% acetonitrile-0.1% TFA. Dimers of the following truncated sequences were detected by mass spectrometry with the percent acetonitrile in parentheses, all at ˜pH 2.5: peak 1, […] (23.5%), monomer m/z=705.3, dimer m/z=1409.3; peak 4: EFLIVKS-amide (25%), monomer m/z=834.4, dimer m/z=1667.3; and peak 5, EFLIVK-amide (32%), monomer m/z=747.4, dimer m/z=1493.1.

[4] = Solubility of peptide constructs; type: physicochemical
[5] = cited from earlier work; for concentration at which dimers form / do not dissociate: aqueous solution, physiological conditions; for dimer formation of HA fragments: compared with HA
[6] = target: the molecule itself; assay: self-dimerization, electrospray mass spectrometry, relative dimer ion current against peptide concentration, pH 5.0
[7] = target: the molecule itself; assay: self-dimerization, electrospray mass spectrometry, alanine scan
[8] = target: porcine pancreatic elastase (porcine, UniProt P00772 27-266); assay: cell-based or functional assay
[9] = target: the molecule itself; assay: LC/MS, C18 reversed phase elution at ~pH 2.5, electrospray

T1 sequence (P00772 27-266): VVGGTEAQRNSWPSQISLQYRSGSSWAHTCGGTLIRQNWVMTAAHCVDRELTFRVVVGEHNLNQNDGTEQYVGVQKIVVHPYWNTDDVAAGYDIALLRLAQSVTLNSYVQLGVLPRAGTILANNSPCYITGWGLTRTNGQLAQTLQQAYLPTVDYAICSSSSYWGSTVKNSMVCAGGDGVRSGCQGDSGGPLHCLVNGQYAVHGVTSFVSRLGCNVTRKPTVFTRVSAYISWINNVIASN
Sequence of porcine pancreatic elastase (porcine, UniProt P00772 27-266) (P00772 27-266 limits assumed): as the sequence (P00772 27-266) above

O=S(=O)(F)Cc1ccccc1 [PMSF]
inhibition of porcine pancreatic elastase ([1]; 2 mM PMSF): 100%

CC[C@H](C)[C@@H]1NC(=O)[C@H](CCCNC(=N)N)NC(=O)[C@H](Cc2ccc(O)cc2)NC(=O)[C@H](CCC(=O)O)NC(=O)[C@H](CCSC)NC(=O)[C@H]([C@@H](C)O)NC(=O)[C@H](C(C)C)NC(=O)[C@H]([C@@H](C)CC)NC(=O)[C@H]([C@@H](C)O)NC(=O)CNC(=O)[C@@H](N)CSSC[C@@H](C(=O)O)NC(=O)[C@H](Cc2ccccc2)NC(=O)[C@H](CO)NC(=O)[C@H](CCCNC(=N)N)NC(=O)[C@H]([C@@H](C)O)NC(=O)[C@H](CCCNC(=N)N)NC(=O)[C@H](CC(=O)O)NC1=O [cyclic[CGTIVTMEYRIDRTRSFC]] (H-CGTIVTMEYRIDRTRSFC-OH; disulfide 1-18)
Ki [2]: 0.00039 µM
inhibition of porcine pancreatic elastase ([1]; 500 nM peptide, 100 μM succ-ala-ala-ala-p-nitroanilide): 6.2%

EFLIVK-amide (EFLIVK-NH2)
dimer detected by mass spectrometry [3]: Dimers

EFLIVKS
dimer detected by mass spectrometry ([3]; listed as EFLIVKS-amide): self-associate to form dimers

EFLIVKSSTKSIPPQSEFLIVKS [EFLIVKS-STKSIPPQS-EFLIVKS]
solubility [4]: quite soluble at low pH

LIVKS-amide
dimer detected by mass spectrometry [3]: Dimers

SKVILFE
concentration at which dimers form / do not dissociate [5]: ~10^−13 M

VSIKFEL [peptide designed to form a short beta sheet]
dimer detected by mass spectrometry [3]: dimeric form of the peptide

[pGlu]PPGGSK
dimer formation of HA fragments [5]: did not lead to dimer formation

[pGlu]PPGGSKVILF [HA]
concentration at which dimers form / do not dissociate [5]: ≤ 10^−13 M

pSKVILF
dimer formation of HA fragments [5]: dimerized more efficiently

pVILF
dimer formation of HA fragments [5]: did not lead to dimer formation

B1: KFLIVKS (peptide)
peptide: KFLIVKS
notes: Analog of EFLIVKS with the N-terminal glu replaced by lys
Kd [6]: 6.8 µM

B2: SKVILFE (peptide)
peptide: SKVILFE-NH2
notes: also called SKVILFE-amide; test peptide SKVILFE
Kd [6]: 12 µM

EFLIVAS (Alanine scan analog of EFLIVKS (K6A))
Kd [6]: > 50 µM
fold weakening of self-binding against EFLIVKS [7]: 6 fold

EFLIVKA (Alanine scan analog of EFLIVKS (S7A))
Kd [6]: 9.9 µM

B3: VSIKFEL (peptide)
peptide: VSIKFEL
notes: Peptide designed to form a short beta sheet
Kd [6]: 13 µM

EFLIAKS (Alanine scan analog of EFLIVKS (V5A))
Kd [6]: 82 µM
fold weakening of self-binding against EFLIVKS [7]: 10 fold

EALIVKS (Alanine scan analog of EFLIVKS (F2A))
Kd [6]: 42 µM
fold weakening of self-binding against EFLIVKS [7]: 5.4 fold

AFLIVKS (Alanine scan analog of EFLIVKS (E1A))
Kd [6]: 12 µM

EFAIVKS (Alanine scan analog of EFLIVKS (L3A))
Kd [6]: 76 µM
fold weakening of self-binding against EFLIVKS [7]: 9.7 fold

CGTIVTMEYRIDRTRSFC (disulfide 1-18) [cyclic[CGTIVTMEYRIDRTRSFC]]
inhibition (% inhibition of elastase cleavage of succ-ala-ala-ala-p-nitroanilide) [8]: 6.2%

EFLAVKS (Alanine scan analog of EFLIVKS (I4A))
Kd [6]: 42 µM
fold weakening of self-binding against EFLIVKS [7]: 5.4 fold

B4: EFLIVK-amide (peptide)
peptide: EFLIVK-NH2
notes: Truncated by-product of the EFLIVKS-amide synthesis; also called peak 5
binding result [9]: binds

EFLIVKS-NH2 (also called EFLIVKS-amide; dimerizer)
Kd [6]: 7.8 µM
